Measurements as given in paper PMC10115798, “Identification of D-arabinan-degrading enzymes in mycobacteria” (Nature Communications, 2023).

Legend:
Assay in all cases: SEC-MALS; SEC-LS: size exclusion chromatography coupled light scattering, Agilent MDS system, Agilent BioSEC 5 1000 Å or GE Superdex 200 column; detector offsets calibrated with BSA, concentrations by refractive index
[1] = biological target: Dg_(GH172b) (HMPREF9455_02471), DUF2961 family GH172 exo-D-arabinofuranosidase from Dysgonomonas gadei (Dysgonomonas gadei) (UniProt F5IZF4)
[2] = biological target: Dg_(GH172c) (HMPREF9455_02479), DUF2961 family GH172 exo-D-arabinofuranosidase from Dysgonomonas gadei (Dysgonomonas gadei) (UniProt F5IZG2)
[3] = biological target: Myc_(GH172) (GII36_05205), DUF2961 homolog from Candidatus Mycosynbacter amalyticus (Candidatus Mycosynbacter amalyticus)
[4] = biological target: Dg_(GH172a) (HMPREF9455_02467), DUF2961 family GH172 exo-D-arabinofuranosidase from Dysgonomonas gadei (Dysgonomonas gadei) (UniProt F5IZF0)
[5] = biological target: the molecule itself

Dg_(GH172b) (HMPREF9455_02471), DUF2961 family GH172 exo-D-arabinofuranosidase from Dysgonomonas gadei (from UniProt F5IZF4 1-643) (enzyme)
stoichiometry N [1]: 2

Dg_(GH172c) (HMPREF9455_02479), DUF2961 family GH172 exo-D-arabinofuranosidase from Dysgonomonas gadei (from UniProt F5IZG2 1-402) (enzyme)
stoichiometry N [2]: 6

Myc_(GH172) (GII36_05205), DUF2961 homolog from Candidatus Mycosynbacter amalyticus (enzyme)
stoichiometry N [3]: 3

Dg_(GH172a) (HMPREF9455_02467), DUF2961 family GH172 exo-D-arabinofuranosidase from Dysgonomonas gadei (from UniProt F5IZF0 1-386) (enzyme)
stoichiometry N [4]: 12

B1: Noc_(GH172) (O3I_017420), DUF2961 family GH172 enzyme from Nocardia brasiliensis (enzyme, UniProt K0EX55 1-342, looked up)
chain: MTPPRRSELWLLDDTRTRSVSAENPTGAPGGGARATTGTGAHAARLLGPGWKISPSIVLGDGETATLADVSGPGVLRHCWLTTDRAALRELTLRMYWDDAAEPAIDVPLGDFFCNGWDELALVDSEMVVVAPAGGLNSYWPMPFRRRARITLENHCGRSVPVYYQITYGEEDVPGEAGYLHARWSRSAPLGSPAVHTLLDTGPARGRYVGTYLAIRPGAPRWWGEGEMKFYLDGDDEYPTLCGTGTEDYFGGAWNFDMDGKYRTYSTAYLGLPQALPADEIYQAHQRFGMYRWHVHDPICFHRELRVTVQGLGWRDSDTYLPLEDAEIATTVWWYQEVPPSG
notes: O3I_017420, DUF2961 homologue, Nocardia brasiliensis; codon-optimized gene bought from Twist Biosciences; also called GH172Noc; source: E. coli BL21-DE3, purified (IMAC, size exclusion chromatography)
stoichiometry N [5]: 3
